Patent US20230287081A1 (NANTONG YICHEN BIOPHARMA, published 2023)

Key:
[1] = target: T1, hPD-L1-hIGg1Fc (SinoBiological) (human, UniProt Q9NZQ7 19-238); experiment: ELISA, hPD-L1-hIgG1Fc coated
T1 construct: Bought reagent; also called soluble hPD-L1; human PD-L1; not shown: human IgG1 Fc
Experimental: (§1) hPD-L1-hIGg1Fc (SinoBiological) or mouse PD-L1-Fc (SinoBiological) (100 ng/well) was coated in 96-well plates, and incubated overnight at 4° C. […] After being washed with PBST containing 2% skimmed milk powder for 4-5 times, anti-human kappa light chain-HRP (Sigma A7146, 1:3000) secondary antibody was added and incubated at room temperature for 1 h, and then washed with PBST containing 2% skimmed milk powder for 4-5 times. Colordevelopment was performed by QuantaBlu fluorescent peroxidase substrate (Life technologies, Cat.15169) and read at 325 nm and 420 nm, or by TMB color reagent (BioLegend, Cat. 421101) and read at 650 nm (unterminated) or 450 nm (terminated). Data was analyzed by nonlinear regression using specific binding model with Prizm Graphpad software.

[2] = target: T2, mouse PD-L1-Fc (SinoBiological) (mouse, UniProt Q9EP73 19-238, limits assumed); experiment: ELISA, mouse PD-L1-Fc coated
T2 construct: Bought reagent; also called soluble mPD-L1; not shown: Fc
Experimental: as §1

[3] = target: T3, hPD-L1 on the cell surface (CHO-hPD-L1 cells; A431 cells) (human, UniProt Q9NZQ7 19-290); experiment: flow cytometry on CHO-hPD-L1 cells (hEGFR- hPDL1+)
T3 construct: whole, on cells; also called CHO-PD-L1
Experimental: (§2) A431, MC38-hEGFR, CHO-PD-L1, HepG2, and Hepa1-6 cells (DMEM medium containing 10% FBS, 1% double antibody) were cultured. After trypsinization, 2*10⁵ cells were taken and washed with pre-cooled PBS for 3 times. After blocked with PBS containing 2% FBS at 4° C., supernatant was discarded by centrifugation, 100 µL of the antibody fusion proteins with different concentrations diluted by the PBS solution containing 2% FBS were added and incubated at 4° C. for 1 h. The unbound antibody fusion protein was washed off with PBS containing 2% FBS, and secondary antibody Mouse Anti-Human IgG Fc-APC (Southern biotech) was added and incubated at 4° C. for 1 h. After being washed with PBS containing 2% FBS for three times, the fluorescence intensity was detected by flow cytometry.

[4] = target: T1, hPD-L1-hIGg1Fc (SinoBiological); experiment: ELISA, hPD-L1-hIgG1Fc coated; weaker than the PD-1m fusion
Experimental: as §1

[5] = target: T2, mouse PD-L1-Fc (SinoBiological); experiment: ELISA, mouse PD-L1-Fc coated; weaker than the PD-1m fusion
Experimental: as §1

[6] = target: T3, hPD-L1 on the cell surface (CHO-hPD-L1 …); experiment: flow cytometry on A431 cells (hGPC3- hPDL1+)
Experimental: as §2

[7] = target: T4, mPDL1 on the surface of Hepa1-6 cells (mouse, UniProt Q9EP73 19-290); experiment: flow cytometry on Hepa1-6 cells (hGPC3- mPDL1+)
T4 construct: whole, on cells; also called mouse PD-L1
Experimental: as §2

Measured: binding result

T2 sequence (Q9EP73 19-238 limits assumed): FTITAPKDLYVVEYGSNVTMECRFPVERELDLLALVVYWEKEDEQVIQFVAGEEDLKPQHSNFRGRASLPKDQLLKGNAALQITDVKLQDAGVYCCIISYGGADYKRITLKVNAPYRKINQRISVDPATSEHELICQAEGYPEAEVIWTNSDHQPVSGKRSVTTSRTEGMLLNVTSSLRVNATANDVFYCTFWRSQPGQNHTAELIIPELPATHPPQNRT
T1 sequence (Q9NZQ7 19-238 limits assumed): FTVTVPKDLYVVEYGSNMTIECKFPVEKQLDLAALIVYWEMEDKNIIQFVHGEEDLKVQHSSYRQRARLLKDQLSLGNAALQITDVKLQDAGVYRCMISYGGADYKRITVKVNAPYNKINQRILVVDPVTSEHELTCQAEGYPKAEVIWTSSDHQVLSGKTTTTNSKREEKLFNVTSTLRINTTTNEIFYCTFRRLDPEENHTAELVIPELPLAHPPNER
T3 sequence (Q9NZQ7 19-290): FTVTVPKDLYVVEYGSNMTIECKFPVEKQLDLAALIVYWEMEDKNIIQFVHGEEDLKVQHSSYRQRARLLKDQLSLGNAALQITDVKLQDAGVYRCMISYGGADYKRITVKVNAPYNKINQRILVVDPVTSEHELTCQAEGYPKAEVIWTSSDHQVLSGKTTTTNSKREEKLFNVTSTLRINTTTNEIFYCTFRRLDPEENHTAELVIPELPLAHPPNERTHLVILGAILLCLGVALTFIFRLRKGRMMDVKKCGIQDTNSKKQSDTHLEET
T4 sequence (Q9EP73 19-290): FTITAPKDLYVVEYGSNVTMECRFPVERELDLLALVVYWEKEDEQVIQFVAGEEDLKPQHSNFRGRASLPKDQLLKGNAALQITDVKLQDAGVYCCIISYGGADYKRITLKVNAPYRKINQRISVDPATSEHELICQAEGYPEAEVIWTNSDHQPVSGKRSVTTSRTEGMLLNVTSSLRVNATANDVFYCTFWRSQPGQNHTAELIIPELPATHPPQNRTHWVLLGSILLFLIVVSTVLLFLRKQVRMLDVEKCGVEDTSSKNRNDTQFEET

B1: PD-1m-aEGFRL (bispecific antibody, human IgG1, kappa)
heavy: QVQLQESGPGLVKPSETLSLTCTVSGGSVSSGDYYWTWIRQSPGKGLEWIGHIYYSGNTNYNPSLKSRLTISIDTSKTQFSLKLSSVTAADTAIYYCVRDRVTGAFDIWGQGTMVTVSSASTKGPSVFPLAPSSKSTSGGTAALGCLVKDYFPEPVTVSWNSGALTSGVHTFPAVLQSSGLYSLSSVVTVPSSSLGTQTYICNVNHKPSNTKVDKKVEPKSCDKTHTCPPCPAPPVAGPSVFLFPPKPKDTLMISRTPEVTCVVVDVSHEDPEVKFNWYVDGVEVHNAKTKPREEQYNSTYRVVSVLTVLHQDWLNGKEYKCKVSNKGLPSSIEKTISKAKGQPREPQVYTLPPSRDELTKNQVSLTCLVKGFYPSDIAVEWESNGQPENNYKTTPPVLDSDGSFFLYSKLTVDKSRWQQGNVFSCSVMHEALHNHYTQKSLSLSPGK
light: not shown
binds: [1] | [2] | [3]

B2: PD-1-aEGFRL (bispecific antibody)
heavy: B1 heavy
light: not shown
notes: Wild-type human PD-1 fused to the light chain of the anti-human EGFR antibody
binds: [4] | [5]

B3: PD-1m-aGPC-3L (bispecific antibody, human IgG1, kappa)
heavy: QVQLVQSGAEVKKPGASVKVSCKASGYTFTDYEMHWVRQAPGQGLEWMGALDPKTGDTAYSQKFKGRVTLTADKSTSTAYMELSSLTSEDTAVYYCTRFYSYTYWGQGTLVTVSSASTKGPSVFPLAPSSKSTSGGTAALGCLVKDYFPEPVTVSWNSGALTSGVHTFPAVLQSSGLYSLSSVVTVPSSSLGTQTYICNVNHKPSNTKVDKKVEPKSCDKTHTCPPCPAPPVAGPSVFLFPPKPKDTLMISRTPEVTCVVVDVSHEDPEVKFNWYVDGVEVHNAKTKPREEQYNSTYRVVSVLTVLHQDWLNGKEYKCKVSNKGLPSSIEKTISKAKGQPREPQVYTLPPSRDELTKNQVSLTCLVKGFYPSDIAVEWESNGQPENNYKTTPPVLDSDGSFFLYSKLTVDKSRWQQGNVFSCSVMHEALHNHYTQKSLSLSPGK
light: LDSPDRPWNPPTFSPALLVVTEGDNATFTCSFSNTSESFVLNWYRMSPSNQTDKLAAFPEDRSQPGQDSRFRVTQLPNGRDFHMSVVRARRNDSGTYLCGAISLAPKVQIKESLRAELRVTERRAEVPTAHPSPSPRPAGQFQGGGGSGGGGSGGGGSGDVVMTQSPLSLPVTPGEPASISCRSSQSLVHSNRNTYLHWYLQKPGQSPQLLIYKVSNRFSGVPDRFSGSGSGTDFTLKISRVEAEDVGVYYCSQNTHVPPTFGQGTKLEIKRTVAAPSVFIFPPSDEQLKSGTASVVCLLNNFYPREAKVQWKVDNALQSGNSQESVTEQDSKDSTYSLSSTLTLSKADYEKHKVYACEVTHQGLSSPVTKSFNRGEC
binds: [1] | [2] | [6] | [7]
